Test system: MS2 coat protein
Test: apparent KD of MS2 coat protein; higher = weaker reporter binding
Settings: Eterna round: R107
How it was run: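 Designed RNA switches were made by on-chip transcription from Illumina sequencing clusters and then titrated with SNAP-549-labelled MS2 coat protein. Twofold steps ran from 0.7 or 1.5 nM to 3 µM, each lasting 0.8–1.5 h early and 10–20 min late, in 100 mM Tris-HCl pH 7.5, 80 mM KCl, 4 mM MgCl2, without or with constant ligand. Apparent KD is the per-design median of normalised cluster binding-curve fits.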

[1] = input ligand: theophylline 20 uM
[2] = input ligand: theophylline 2 mM
[3] = input ligand: tryptophan 2.4 mM

Row | Sequence | apparent KD of MS2 coat protein (input ligand: arginine 13.2 mM) [nM] | apparent KD of MS2 coat protein (input ligand: none) [nM] | apparent KD of MS2 coat protein [1] [nM] | apparent KD of MS2 coat protein [2] [nM] | apparent KD of MS2 coat protein [3] [nM]
1 | GGACUAACCAGAAGGAGCGACACAGCAGAAACUGCAAAUCCUCCGCACGAGGAUCACCCGUGUCAGGUAGGUCGCUGGUUAGUCG [ArgBX 28] | 37.4 | 49.5 | 55.9 | 71.6 | 42.7
2 | CUCAUCCACGCGGCCGCCACUAUAUUGUGGUGUGGGUGUGACGUAUUACAUGAGGAUCACCCAUGUAGGACCGGGCGUGGAUGAG [Stork] | 188 | 408 | 525 | 1100 | 534
3 | AGCACUGUGACGGCCGCCACUAUAUUAGGGUGGUAGGGUUCAUAAAUACAUGAGGAUCACCCAUGUAGGACCGGGUCUCAGUGCA [Omei Trp Exc B A v1] | 11.6 | 12.1 | 15.9 | 10 | 21.2
4 | GGAUAGAUAGGAGAUACCAGAUACAUAAACAUGAGGAUCACCCAUGUGUCUGCACUAAGUAUCCCUUGGCAGCUCGGAGAUCUGA [#17 Same State - Theophylline B] | 17.4 | – | 21.7 | – | 18.5
5 | CACGAAAGAUCGGCCGCCACUAGCCUGUGUGUACUAGCACAUGAGGAUCACCCAUGUUCUUGCGUUAGGACCGGGAUUGAGCGUG [#05 Exclusion Tryptophan B] | 17.1 | 26.8 | 27.9 | 33.9 | 25.5
6 | GUAUUAACAAAAGUUGAUACAGUGGGUGAACGAGGACCGGUACGGCCGCCACUCGGACAUGAGGAUCACCCAUGUCCAUGUGAAA [AstrosExyTryA#12] | 15.9 | – | 19.2 | 17.2 | –
7 | GGAUAGGACACGGCCGCCACUGCCUAGGAUACUAGCAACAUUUGGGUACAUGAGGAUCACCCAUGUAGGACCGGGUGUCCUAUCG | 38.5 | – | 70.9 | 70.3 | –
8 | ACAUGAAGAACAGCGGUGGGCGCGCUCGAUACCAGUACUUUGAUUUACCCUUGGCAGCGACAUGAGGAUCACCCAUGUGAGAUGA [XTheo A #1] | 16.9 | – | 22.4 | – | 18.6
9 | GCUACAUGAGGAUCACCCAUGUCAGCUACACGAGGACCGGUACGGCCGCCACUCGGUAGCGCUCAUCCUCGUGUGUAAGUCAAGU [Xedier] | 48.2 | 81.6 | 116 | 97.5 | 23.5
10 | GGGCCUAUAAGCAGGCCCACAGCGGGUGAUACCAGCAAUAAAACUUGCCCUUGGCAGCACACAGCUACAUGAGGAUCACCCAUGU [Beator] | 41.1 | 45.1 | 72.9 | 70.6 | 62.4
11 | GUAAUUAUAAGAAGGAGCGUCGAAAAUGGGUAAACAUGAGGAUCACCCAUGUAAAGGGAACGACAGGUAGGUCGCUUAUGAUUAC [AstromonsSSArgB#22] | 76.5 | 185 | 164 | 274 | 202
12 | AUCUCAUAGAGUGAUACCAGACUACAUGAGGAUCACCCAUGUUACAUUUAAAUAUCAUUUGUCCCUUGGCAGCACAUGAAGUACA [JR_Nu_ExcTheophyB_Sub018] | 22.9 | – | 37.3 | – | 27.6
13 | AAUCGUAAGGCGGCCGCCACUACACAUGAGGAUCACCCAUGUCUCGCAGGCUUGCGUUGGGAUAGUAGGACCGGGCCAGUAAUAA [Exclusion - Tryptophan B (Freestyle 14)] | 18.5 | – | 28.8 | 26.6 | –
14 | GGGUAUGAUCCGGAUACCAGCGAACAUGAGGAUCACCCAUGUGACCUAAGAUAGGCUCUACGCCCUUGGCAGCCGCGAUCGCGUU [Same State Theophylline B GF8] | 21.7 | – | 32 | – | 29
15 | AGCCACUCGAGUGAUCCUCACGAGUGGCUACGAGGACCGGUACGGCCGCCACUCGAAUCAACAUGAGGAUCACCCAUGUAAUAAU [Brourdmod02] | 20.5 | 202 | 159 | 802 | 54.8
16 | UGUACUAUGUGAAGGAGCGAGAAUCCUACAUGAGGAUCACCCAUGUAACAGCGAAAGCUGACUCAGGUAGGUCGCACAUAGUACU [ArgBS - First try] | 111 | 130 | 115 | 144 | 128
17 | GCUGUACCAUGAAGGAGCGCUCACGCAGUUGCGGGUACAUGAGGAUCACCCAUGUUGGGUGAGCAGGUAGGUCGCAUGGUACAGC [SSAB #17] | 227 | 237 | 193 | 230 | 215
18 | GGACAACAUGAGGAUCACCCAUGUCCUGAUACCAGUCAGCGCAGUGACCCUUGGCAGCAGACGGAUACGAAAUAACUGAGAGAUA [theeternabot_sameState_MS2_Theo_A_44] | 29.2 | – | 65 | – | 62
19 | AAGCCCAGGACGGCCGCCACUGUAAAAUGGUGGUUCGCCUGUAAGAACAUGAGGAUCACCCAUGUCAGGACCGGGUCCACGAGUU [theeternabot_exclusion_MS2_Trp_B_46] | 17.1 | – | 23.8 | 15.8 | –
20 | UAUAUAUAUAUUGAUACCAGCAGAGAAAACGUUUAUCCUAACAUGAGGAUCACCCAUGUAUGCCCUUGGCAGCGGUAUAUAUAUA [8.D] | 19.7 | – | 29.2 | – | 22.6
21 | UGGCAGGAGUGAUCCUCCUGCCAAGGUGAUACCAGCAUCGAAAGAUGCCCUUGGCAGCACCAACAUGAGGAUCACCCAUGUAAUA [(MT)''-(M)'-(T')-(Theo)-(Ms2)_Design1/22_10] | 34.1 | – | 177 | – | 104
22 | AGUCUUGAACGAAGGAGCGACGUACAUGAGGAUCACCCAUGUGGGAGCGAAAGCUCCUAACGUCAGGUAGGUCGCGUUCGAGACA [Omei Arginine B SS A v1] | 17.7 | 16.7 | 21.9 | 16.2 | 18.6
23 | UAGAAACGUACGGCCGCCACUCGGAAUUGGCUCAGACCAUACGUACAUGAGGAUCACCCAUGUUAGAGGACCGGGUAUAAUCUAA [theeternabot_sameState_MS2_Trp_B_46] | 18.5 | – | 30.8 | 31 | –
24 | UACAUGAGGAUCACCCAUGUGUAACCAGAAGGAGCGUGCGAAAGCACAGGUAGGUCGCUGGUGGGUUUAGGUUUAAUAGGUGUAU [SSAA NP+V+V2 #4 +-Same Structure] | 32.8 | 32.3 | 54.1 | 40.6 | 34.6
25 | UUCAGACAUGAGGAUCACCCAUGUACUGAAGGAGCGGAUAAAUAUCCAGGUAGGUCGCAGUAUUGAGGGUCUACUUCCAGUCUUA [Rexeesqu] | 11.7 | 9.36 | 12.9 | 10.4 | 10.1
26 | UGUAUGUGAUUUGAUACCAGUCCAACUGGUAAAACAUGAGGAUCACCCAUGUAAAAUUGGGACCCUUGGCAGCAAAUCGCAUACU [SSTheo B #21] | 144 | – | 346 | – | 534
27 | AACAUGAGGACGGAUACCAGUCACAUGAGGAUCACCCAUGUACAUGAGGAUCACCCAUGUGGCCCUUGGCAGCCGCAUGUGAUCA [Exclusion Theophylline B 4] | 124 | – | 308 | – | 412
28 | GAUUGGUAUAGAAGGAGCGUCGAAAAUGGGUAAACAUGAGGAUCACCCAUGUAAAGGGAACGACAGGUAGGUCGCUAUAUUAAUC [AstromonsSSArgB#30] | 146 | 174 | 256 | 272 | 200
29 | CUGUACAUCUCGGCCGCCACUGCUGACAUGGGAGUCACCCAUGUCCACAUGAGGAUCACCCAUGUCAGGACCGGGAGGUGUGCAG [SSTryp B #25] | 87.4 | – | 272 | 287 | –

Source: the supplement of paper PMC9170038
